Data as given in the RNAGym collection of RNA variant scans (doi:10.7554/elife.80360).

B1: HDV Ribozyme (parent)
chain: GGCCGGCAUGGUCCCAGCCUCCUCGCUGGCGCCGGCUGGGCAACAUUCCGAGGGGACCGUCCCCUCGGUAAUGGCGAAUGGGACCCA

Variants of: B1
Experiment: self-cleavage, relative activity (ratio to wild type); higher = more cleavage; co-transcriptional

Row | Variant | self-cleavage
1 | GGCUGGCAUGGUCCCAGCCUCCUCGCUGGCGCCGGCUGGGCAACAUUCCGAGGGGACCGUCCCCUCGGUAAUGCCGAAUGGGACCCA [C4U G74C] | 0.0791
2 | GGCUGGCAGGGUCCCAGCCUCCUCGCUGGCGCCGGCUGGGCAACAUUCCGAGGGGACCGUCCCCUCGGUAAUGGCGAAUGGGACCCA [C4U U9G] | 0.782
3 | GGCUGGCAAGGUCCCAGCCUCCUCGCUGGCGCCGGCUGGGCAACAUUCCGAGGGGACCGUCCCCUCGGUAAUGGCGAAUGGGACCCA [C4U U9A] | 0.739
4 | GGCUGGCACGGUCCCAGCCUCCUCGCUGGCGCCGGCUGGGCAACAUUCCGAGGGGACCGUCCCCUCGGUAAUGGCGAAUGGGACCCA [C4U U9C] | 0.727
5 | GGCUGGCAUGGUCCCAGCCUCCUCGCUGGCGCCGGCUGGGCAACAUUCCGAGGGGACCGUCCCCUCGGUAAUGGCAAAUGGGACCCA [C4U G76A] | 0.443
6 | GGCUGGCAUGGUCCCAGCCUCCUCGCUGGCGCCGGCUGGGCAACAUUCCGAGGGGACCGUCCCCUCGGUAAUGGCGAAUUGGACCCA [C4U G80U] | 0.0683
7 | GGCUGGCAUGGUCCCAGCCUCCUCGCUGGCGCCGGCUGGGCAACAUUCCGAGGGGACCGUCCCCUCGGUAAUGGCGAAUCGGACCCA [C4U G80C] | 0.157
8 | GGCCAGCAUGGUCCCAGCCUCCUCGCUGGCGCCGGCUGGGCAACAUUCCGAGGGGACCGUCCCCUCGGUAAUGGCGAAUGGGACCCU [G5A A87U] | 0.218
9 | GGCUGGCAUGGUCCCAGCCUCCACGCUGGCGCCGGCUGGGCAACAUUCCGAGGGGACCGUCCCCUCGGUAAUGGCGAAUGGGACCCA [C4U U23A] | 0.727
10 | GGCUGGCAUGGUCCCAGCCUCCGCGCUGGCGCCGGCUGGGCAACAUUCCGAGGGGACCGUCCCCUCGGUAAUGGCGAAUGGGACCCA [C4U U23G] | 0.302
11 | GGCCAGCUUGGUCCCAGCCUCCUCGCUGGCGCCGGCUGGGCAACAUUCCGAGGGGACCGUCCCCUCGGUAAUGGCGAAUGGGACCCA [G5A A8U] | 0.151
12 | GGCCAGCGUGGUCCCAGCCUCCUCGCUGGCGCCGGCUGGGCAACAUUCCGAGGGGACCGUCCCCUCGGUAAUGGCGAAUGGGACCCA [G5A A8G] | 0.0692
13 | GGCCAGCCUGGUCCCAGCCUCCUCGCUGGCGCCGGCUGGGCAACAUUCCGAGGGGACCGUCCCCUCGGUAAUGGCGAAUGGGACCCA [G5A A8C] | 0.0519
14 | GGCCAGCAUGGUCCCAGCCUCCUCGCUGGCGCCGGCUGGGCAACCUUCCGAGGGGACCGUCCCCUCGGUAAUGGCGAAUGGGACCCA [G5A A45C] | 0.0462
15 | GGCCAGCAUGGUCCCAGCCUCCUCGCUGGCGCCGGCUGGGCAACUUUCCGAGGGGACCGUCCCCUCGGUAAUGGCGAAUGGGACCCA [G5A A45U] | 0
16 | GGCCAGCAUGGUCCCAGCCUCCUCGCUGGCGCCGGCUGGGCAUCAUUCCGAGGGGACCGUCCCCUCGGUAAUGGCGAAUGGGACCCA [G5A A43U] | 0.089
17 | GGCCAGCAUGGUCCCAGCCUCCUCGCUGGCGCCGGCUGGGCACCAUUCCGAGGGGACCGUCCCCUCGGUAAUGGCGAAUGGGACCCA [G5A A43C] | 0.0594
18 | GGCCAGCAUGGUCCCAGCCUCCUCGCUGGCGCCGGCUGGGCAGCAUUCCGAGGGGACCGUCCCCUCGGUAAUGGCGAAUGGGACCCA [G5A A43G] | 0.131
19 | GGCCAGCAUGGUCCCAGCCUCCUCGCUGGCGCCGGCUGGGCAACAUUCCGAGGGGCCCGUCCCCUCGGUAAUGGCGAAUGGGACCCA [G5A A56C] | 0.107
20 | GGCCAGCAUGGUCCCAGCAUCCUCGCUGGCGCCGGCUGGGCAACAUUCCGAGGGGACCGUCCCCUCGGUAAUGGCGAAUGGGACCCA [G5A C19A] | 0.0723
21 | GGCCAGCAUGGUCCCAGCUUCCUCGCUGGCGCCGGCUGGGCAACAUUCCGAGGGGACCGUCCCCUCGGUAAUGGCGAAUGGGACCCA [G5A C19U] | 0
22 | GGCUGGCAUGGUCCCAGCCGCCUCGCUGGCGCCGGCUGGGCAACAUUCCGAGGGGACCGUCCCCUCGGUAAUGGCGAAUGGGACCCA [C4U U20G] | 0

Row | Variant | self-cleavage
23 | GGCUGGCAUGGUCCCAGCCCCCUCGCUGGCGCCGGCUGGGCAACAUUCCGAGGGGACCGUCCCCUCGGUAAUGGCGAAUGGGACCCA [C4U U20C] | 0.0437
24 | GGCUGGCAUGGUCCCAGCCACCUCGCUGGCGCCGGCUGGGCAACAUUCCGAGGGGACCGUCCCCUCGGUAAUGGCGAAUGGGACCCA [C4U U20A] | 0.0554
25 | GGCCAGCAUGGUCCAAGCCUCCUCGCUGGCGCCGGCUGGGCAACAUUCCGAGGGGACCGUCCCCUCGGUAAUGGCGAAUGGGACCCA [G5A C15A] | 0.162
26 | GGCUGGCAUGGUCCCAGCCUCCUCGCCGGCGCCGGCUGGGCAACAUUCCGAGGGGACCGUCCCCUCGGUAAUGGCGAAUGGGACCCA [C4U U27C] | 0.166
27 | GGCCAGCAUGGUCCCAGCCUCCUCGCUGGCGCCGGCUGGGCAACAUUCCGAGGGGACCGUCCCCUCGGUAGUGGCGAAUGGGACCCA [G5A A71G] | 0
28 | GGCCAGCAUGGUCCCAGCCUCCUCGCUGGCGCCGGCUGGGCAACAUUCCGAGGGGACCGUCCCCUCGGUACUGGCGAAUGGGACCCA [G5A A71C] | 0.0426
29 | GGCCAGCAUGGUCCCAGCCUCCUUGCUGGCGCCGGCUGGGCAACAUUCCGAGGGGACCGUCCCCUCGGUAAUGGCGAAUGGGACCCA [G5A C24U] | 0
30 | GGCCAGCAUGGUGCCAGCCUCCUCGCUGGCGCCGGCUGGGCAACAUUCCGAGGGGACCGUCCCCUCGGUAAUGGCGAAUGGGACCCA [G5A C13G] | 0
31 | GGCCAGCAUGGUUCCAGCCUCCUCGCUGGCGCCGGCUGGGCAACAUUCCGAGGGGACCGUCCCCUCGGUAAUGGCGAAUGGGACCCA [G5A C13U] | 0.107
32 | GGCCAGCAUGGUCCCAGCCUCCUCGCUGGCGCCGGCUGGGCAACAUUCCGAGGGGACCGUCCCCUCGGUAAUGGCGGAUGGGACCCA [G5A A77G] | 0
33 | GGCUGGCAUGGUCCCAGCCUCCUCGCUGGCGCCGGCGGGGCAACAUUCCGAGGGGACCGUCCCCUCGGUAAUGGCGAAUGGGACCCA [C4U U37G] | 0
34 | GGCUGGCAUGGUCCCAGCCUCCUCGCUGGCGCCGGCUGGGCAACAUUCCGAGGGGACCGUCCCCCCGGUAAUGGCGAAUGGGACCCA [C4U U65C] | 1.06
35 | GGCUGGCAUGGUCCCAGCCUCCUCGCUGGCGCCGGCUGGGCAACAUUCCGAGGGGACCGUCCCCGCGGUAAUGGCGAAUGGGACCCA [C4U U65G] | 0.656
36 | GGCUGGCAUGGUCCCAGCCUCCUCGCUGGCGCCGGCUGGGCAACAUUCCGAGGGGACCGUCCCCACGGUAAUGGCGAAUGGGACCCA [C4U U65A] | 0.727
37 | GGCCAGAAUGGUCCCAGCCUCCUCGCUGGCGCCGGCUGGGCAACAUUCCGAGGGGACCGUCCCCUCGGUAAUGGCGAAUGGGACCCA [G5A C7A] | 0
38 | GGCCAGUAUGGUCCCAGCCUCCUCGCUGGCGCCGGCUGGGCAACAUUCCGAGGGGACCGUCCCCUCGGUAAUGGCGAAUGGGACCCA [G5A C7U] | 0.0978
39 | GGCCAGCAUGGUCCCAGCCUCCUCGCUGGUGCCGGCUGGGCAACAUUCCGAGGGGACCGUCCCCUCGGUAAUGGCGAAUGGGACCCA [G5A C30U] | 0.0692
40 | GGCUGGCAUGGUCCCAGCCUCCUCGCUGGCGCCGGCUGGGCAACAUCCCGAGGGGACCGUCCCCUCGGUAAUGGCGAAUGGGACCCA [C4U U47C] | 0.554
41 | GGCUGGCAUGGUCCCAGCCUCCUCGCUGGCGCCGGCUGGGCAACAUGCCGAGGGGACCGUCCCCUCGGUAAUGGCGAAUGGGACCCA [C4U U47G] | 0.88
42 | GGCCAGCAUGGUCCCAGACUCCUCGCUGGCGCCGGCUGGGCAACAUUCCGAGGGGACCGUCCCCUCGGUAAUGGCGAAUGGGACCCA [G5A C18A] | 0.0875
43 | GGCCAGCAUGGUCCCUGCCUCCUCGCUGGCGCCGGCUGGGCAACAUUCCGAGGGGACCGUCCCCUCGGUAAUGGCGAAUGGGACCCA [G5A A16U] | 0.356
44 | GGCCAGCAUGGUCCCCGCCUCCUCGCUGGCGCCGGCUGGGCAACAUUCCGAGGGGACCGUCCCCUCGGUAAUGGCGAAUGGGACCCA [G5A A16C] | 0.166

Row | Variant | self-cleavage
45 | GGCCAGCAUGGUCUCAGCCUCCUCGCUGGCGCCGGCUGGGCAACAUUCCGAGGGGACCGUCCCCUCGGUAAUGGCGAAUGGGACCCA [G5A C14U] | 0.119
46 | GGCCAGCAUGGUCCCAGCCUCCUCGCUGGCGCCGGCUGGGCAACAUUCCGAGGGGACCGUCCCCUCGGUAAUGGCGAAUGGGGCCCA [G5A A83G] | 0.297
47 | GGCUGGCAUGGUCCCAGCCUCCUCGCUGGCGCCGGCUGGGCAACAUUCCGAGGGGACCGCCCCCUCGGUAAUGGCGAAUGGGACCCA [C4U U60C] | 0.872
48 | GGCCAGCAUGGUCCCAGCCUCCUCGGUGGCGCCGGCUGGGCAACAUUCCGAGGGGACCGUCCCCUCGGUAAUGGCGAAUGGGACCCA [G5A C26G] | 0.427
49 | GGCCAGCAUGGUCCCAGCCUCCUCGAUGGCGCCGGCUGGGCAACAUUCCGAGGGGACCGUCCCCUCGGUAAUGGCGAAUGGGACCCA [G5A C26A] | 0.522
50 | GGCUGGCAUGGUCCCAGCCUCCUCGCUGGCGCCGGCUGGGCAACAUUCCGAGGGGACCGUCCCCUCGGUAAUGGCGAAAGGGACCCA [C4U U79A] | 0.755
51 | GGCCAGCAUGGUCCCAGCCUCCUCGCUGGCGCCGGCUGGGCAACAUUCCGAGGGGACCGUCCCCUCGGUAAUGGCGAUUGGGACCCA [G5A A78U] | 0.101
52 | GGCCAGCAUGGUCCCAGCCUCCUCGCUGGCGCCGGCUGGGCAACAUUCCGAGGGGACCGUCCCCUCGGUCAUGGCGAAUGGGACCCA [G5A A70C] | 0.166
53 | GGCCAGCAUGGUCCCAGCCUCCUCGCUGGCGCCGGCUGGGCAACAUUCCGAGGGGACCGUCCCCUCGGUGAUGGCGAAUGGGACCCA [G5A A70G] | 0.0504
54 | GGCUGGCAUGGUCCCAGCCUCCUCGCUGGCGCCGGCUGGGCAACAUUCCGAGGGGACCGUCCCCUCGGAAAUGGCGAAUGGGACCCA [C4U U69A] | 0.623
55 | GGCUGGCAUGGUCCCAGCCUCCUCGCUGGCGCCGGCUGGGCAACACUCCGAGGGGACCGUCCCCUCGGUAAUGGCGAAUGGGACCCA [C4U U46C] | 0.403
56 | GGCCAGCAUGGUCCCAGCCUCCUCGCUGGCGCCGGCUGGGCUACAUUCCGAGGGGACCGUCCCCUCGGUAAUGGCGAAUGGGACCCA [G5A A42U] | 0.111
57 | GGCCAGCAUGGUCCCAGCCUCCUCGCUGGCGCCGGCUGGGCGACAUUCCGAGGGGACCGUCCCCUCGGUAAUGGCGAAUGGGACCCA [G5A A42G] | 0
58 | GGCCAGCAUGGUCCCAGCCUCCUCGCUGGCGCCGGCUGGGCCACAUUCCGAGGGGACCGUCCCCUCGGUAAUGGCGAAUGGGACCCA [G5A A42C] | 0.135
59 | GGCUGGCAUGGGCCCAGCCUCCUCGCUGGCGCCGGCUGGGCAACAUUCCGAGGGGACCGUCCCCUCGGUAAUGGCGAAUGGGACCCA [C4U U12G] | 0.465
60 | GGCUGGCAUGGUCCCAGCCUCCUCGCUGGCGCCGGCUGGGCAACAUUCCGAGGGGACCGUCCCCUCGGUAAUGGCGAAUGGUACCCA [C4U G82U] | 0.119
61 | GGCUGGCAUGGUCCCAGCCUCCUCGCUGGCGCCGGCUGGGCAACAUUCCGAGGGGACCGUCCCCUCGGUAAUGGCGAAUGGAACCCA [C4U G82A] | 0.0959
62 | GGCUGGCAUGGUCCCAGCCUCCUCGCUGGCGCCGGCUGGGCAACAUUCCGAGGGGACCGUCCCCUCGGUAAUGGCGAAUGGCACCCA [C4U G82C] | 0.0875
63 | GGCUGGCAUGGUCCCAGCCUCCUCGCUGGCGCCGGCUGGGCAACAUUCCGAGGGGACCGUCCCCUCGGUAAAGGCGAAUGGGACCCA [C4U U72A] | 0.415
64 | GGCUGGCAUGGUCCCAGCCUCCUCGCUGGCGCCGGCUGGGCAACAUUCCGAGGGGACCGUCCCCUCGGUAACGGCGAAUGGGACCCA [C4U U72C] | 0.554
